Laboratory results: paper PMC11758708, “Natural variation in MdNAC5 contributes to fruit firmness and ripening divergence in apple”

Biological target: MdNAC5A (Malus x domestica (Fuji / Cripp's Pink), UniProt A0A498K6T8 1-364)
Assay: EMSA; EMSA/Gel-Shift Kit (Beyotime) per instructions; buffer, salt, pH and temperature not stated
Details: protein: recombinant; tags: His (pET-32a); chain copies: 2; label: 3' biotin (both strands); blunt

Sequence of MdNAC5A (A0A498K6T8 entry or part of it): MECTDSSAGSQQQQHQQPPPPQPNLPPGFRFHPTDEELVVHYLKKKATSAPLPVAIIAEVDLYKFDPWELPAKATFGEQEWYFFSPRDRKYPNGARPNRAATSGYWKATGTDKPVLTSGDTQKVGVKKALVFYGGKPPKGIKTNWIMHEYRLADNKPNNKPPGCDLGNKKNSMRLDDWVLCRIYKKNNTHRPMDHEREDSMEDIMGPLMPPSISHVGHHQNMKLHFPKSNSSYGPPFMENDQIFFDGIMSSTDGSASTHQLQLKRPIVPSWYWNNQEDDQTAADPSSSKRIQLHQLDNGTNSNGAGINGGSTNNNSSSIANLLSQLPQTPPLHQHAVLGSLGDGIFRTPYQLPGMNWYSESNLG

B1: MdACS1 probe (dsDNA)
DNA 1: CCTGTGACAATATTACATGTGGCATGTCAATTGAGA
DNA 2: TCTCAATTGACATGCCACATGTAATATTGTCACAGG
binding result: binds
